These results are taken from patent US20220275095A1 (SURROZEN OPERATING, published 2022).

Numbering of substitutions follows the chain as printed.

The target of test [1] is T1, human Fzd8 cysteine rich domain (CRD) (human, UniProt Q9H461 28-153, limits assumed).
T1 construct: domain: cysteine rich domain (CRD); C-terminally biotinylated in the BLI assay; also called hFzd8; hFzd8 (CRD)
T1 sequence (looked up): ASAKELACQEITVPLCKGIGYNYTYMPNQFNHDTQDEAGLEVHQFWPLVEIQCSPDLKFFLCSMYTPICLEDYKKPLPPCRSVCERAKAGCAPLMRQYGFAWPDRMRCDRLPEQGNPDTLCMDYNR
Briefly: BLI, Fab on captured biotinylated Fzd CRD; *** = 100 nM > KD >= 10 nM. The procedure:
(§1) C-terminal biotinylated Fzd CRD recombinant protein was diluted to 20 nM in the running buffer (PBS, 0.05% Tween-20, 0.5% BSA, pH 7.2) and captured to the SA biosensor until coupling length reached 0.2 nm. Following capture of the Fzd CRD, the SA biosensor with captured biotinylated-Fzd CRD was dipped into wells containing the relevant antibody fragment at 7 different concentrations (0, 1.37, 4.12, 12.4, 37, 111.1, 333.3, 1000 nM) in running buffer, plus a well with only running buffer as a reference channel. KD was determined by global fitting, 1:1 binding model according to manufacturer recommended settings.

The next test deals with T2, human Fzd9 CRD (human, UniProt O00144 23-157, limits assumed).
T2 construct: domain: cysteine rich domain (CRD)
T2 sequence (looked up): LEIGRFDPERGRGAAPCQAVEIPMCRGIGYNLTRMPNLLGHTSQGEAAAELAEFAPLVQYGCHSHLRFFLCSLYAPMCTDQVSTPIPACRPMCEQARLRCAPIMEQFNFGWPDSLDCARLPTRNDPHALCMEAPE
The experiment in a line: BLI. On the procedure: as §1

The next test deals with T3, human Fzd4 CRD (human, UniProt Q9ULV1 37-163, limits assumed).
T3 construct: domain: cysteine rich domain (CRD)
T3 sequence (looked up): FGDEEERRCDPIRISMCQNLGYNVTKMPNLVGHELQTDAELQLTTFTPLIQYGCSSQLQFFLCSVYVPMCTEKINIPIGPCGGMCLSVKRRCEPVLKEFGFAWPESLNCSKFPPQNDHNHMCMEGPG
Briefly: BLI. The procedure:
as §1

The next test addresses T4, human Fzd10 CRD (human, UniProt Q9ULW2 21-152, limits assumed).
T4 construct: domain: cysteine rich domain (CRD)
T4 sequence (looked up): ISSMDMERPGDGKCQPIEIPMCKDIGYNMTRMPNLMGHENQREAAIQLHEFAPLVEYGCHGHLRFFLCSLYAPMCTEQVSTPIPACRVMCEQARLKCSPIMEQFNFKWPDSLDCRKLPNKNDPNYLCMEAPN
The experiment in a line: BLI. On the procedure:
as §1

The next test concerns the target mouse Fzd1 CRD (mouse, UniProt O70421 100-227). The experiment in a line: BLI. On the procedure: as §1
In another test the target is human Fzd7 CRD (human, UniProt O75084 33-165). Briefly: BLI. The procedure:
as §1

In another test the target is T5, mouse Fzd5 CRD (mouse, UniProt Q9EQD0 27-152, limits assumed).
T5 construct: domain: cysteine rich domain (CRD)
T5 sequence (looked up): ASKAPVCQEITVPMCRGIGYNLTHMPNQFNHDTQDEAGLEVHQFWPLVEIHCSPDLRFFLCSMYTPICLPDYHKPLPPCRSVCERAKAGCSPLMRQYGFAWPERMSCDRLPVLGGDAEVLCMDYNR
The experiment in a line: BLI. On the procedure: as §1

A further test concerns the target T6, human Fzd3 CRD (human, UniProt Q9NPG1 23-138, limits assumed).
T6 construct: domain: cysteine rich domain (CRD)
T6 sequence (looked up): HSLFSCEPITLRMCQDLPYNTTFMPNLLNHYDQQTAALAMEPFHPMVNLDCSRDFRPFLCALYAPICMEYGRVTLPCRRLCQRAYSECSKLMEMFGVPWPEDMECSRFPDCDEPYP
Briefly: BLI. The procedure: as §1

In another test the target is T7, mouse Fzd9 CRD (mouse, UniProt Q9R216 24-158, limits assumed).
T7 construct: domain: cysteine rich domain (CRD)
T7 sequence (looked up): T2 sequence (looked up) with A14P, V20M, E50Q, A55S
The experiment in a line: BLI. The procedure: as §1

Another test concerns the target mouse Fzd7 CRD (mouse, UniProt Q61090 33-165). The experiment in a line: BLI. On the procedure:
as §1

Another test has as its target T8, mouse Fzd3 CRD (mouse, UniProt Q61086 23-138, limits assumed).
T8 construct: domain: cysteine rich domain (CRD)
T8 sequence (looked up): T6 sequence (looked up)
The experiment in a line: BLI. On the procedure: as §1

The next test has as its target human Fzd1 CRD (human, UniProt Q9UP38 105-232). Briefly: BLI. The procedure:
as §1

Another test addresses T9, human Fzd5 CRD (human, UniProt Q13467 27-152, limits assumed).
T9 construct: domain: cysteine rich domain (CRD)
T9 sequence (looked up): T5 sequence (looked up) with H51Q, G115R
Briefly: BLI. The procedure: as §1

Another test addresses T10, mouse Fzd10 CRD (mouse, UniProt Q8BKG4 22-153, limits assumed).
T10 construct: domain: cysteine rich domain (CRD)
T10 sequence (looked up): T4 sequence (looked up) with M6L, I17V, M29T, G61S, N105K, K107R, R115S
Briefly: BLI. On the procedure:
as §1

The next test has as its target human Fzd2 CRD (human, UniProt Q14332 24-155). The experiment in a line: BLI. The procedure: as §1
For a further test, the target named is T11, human Fzd6 CRD (human, UniProt O60353 19-134, limits assumed).
T11 construct: domain: cysteine rich domain (CRD)
T11 sequence (looked up): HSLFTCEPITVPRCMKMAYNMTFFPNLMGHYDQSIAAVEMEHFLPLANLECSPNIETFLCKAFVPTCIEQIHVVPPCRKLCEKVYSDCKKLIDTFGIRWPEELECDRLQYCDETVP
Briefly: BLI. On the procedure:
as §1

A further test has as its target T12, mouse Fzd6 CRD (mouse, UniProt Q61089 19-134, limits assumed).
T12 construct: domain: cysteine rich domain (CRD)
T12 sequence (looked up): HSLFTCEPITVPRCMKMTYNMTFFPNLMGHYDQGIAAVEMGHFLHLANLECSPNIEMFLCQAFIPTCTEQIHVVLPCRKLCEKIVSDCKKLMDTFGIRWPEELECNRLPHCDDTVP
Briefly: BLI. On the procedure:
as §1

The target in the next test is mouse Fzd2 CRD (mouse, UniProt Q9JIP6 29-160). Briefly: BLI. The procedure:
as §1

The target of the next test is T13, mouse Fzd4 CRD (mouse, UniProt Q61088 37-163, limits assumed).
T13 construct: domain: cysteine rich domain (CRD)
T13 sequence (looked up): T3 sequence (looked up) with S15A, K97R, E105D, S106T
Briefly: BLI. On the procedure: as §1

Another test addresses Fzd2 CRD (UniProt Q14332 24-155). Briefly: BLI (Octet Red 96), biotinylated Fzd2 CRD on streptavidin biosensor. On the procedure:
Binding kinetics of monospecific Fzd binders to either (CRD) or the extracellular hinge region (hinge) was determined by bio-layer interferometry (BLI) using Octet Red 96 (PALL ForteBio, Fremont, Calif.) instruments at 30° C., 1000 rpm with streptavidin (SA) biosensors. N-terminal biotinylated Fzd1 or Fzd2 CRD and Fzd1 or Fzd 2 hinge proteins were captured on the SA biosensor. Following capture of biotinylated-Fzd1 or Fzd2, the SA biosensor with captured […] was dipped into wells containing the relevant antibodies at 7 different concentrations in running buffer plus a well with only running buffer as a reference channel. KD was determined by global fitting. As shown in FIGS. 4A-4H these antibody fusion proteins only bound to either Fzd1 or Fzd2 protein with the hinge region, and not to the CRD domains alone.

B1: 027S-E5 Fab (Fab, V domains shown)
VH: QVQLEQSGAEVKKPGASVKVSCKASGGTFSSYAISWVRQAPGQGLEWMGMINPSGGSTTYAQKFQGRVTMTRDTSTSTVYMELSSLRSEDTAVYYCARQAGLHCSSTSCYLGNWFDPWGQGTLVTVSS
VL: DIQMTQSPSSLSASVGDRVTITCRASQGITKSLAWYQQKPGKAPKLLIYAASNLATGVPSRFSGSGSGTDFTLTISSLQPEDFATYYCQQYNTFPITFGQGTRLEIKR
notes: Fab chains as printed, heavy chain with hexa-histidine tag; also called 027S-E05
The molecule B1 registered a dissociation constant KD in test [1] of 10 to 100 nM. For the same molecule, the binding result with human Fzd9 CRD, in the test with human Fzd4 CRD, with human Fzd10 CRD, with mouse Fzd1 CRD, with human Fzd7 CRD and with mouse Fzd5 CRD was “no binding (tested: 1000 nM)” each time. For the same molecule, the binding result with human Fzd3 CRD, with mouse Fzd9 CRD, in the test with mouse Fzd7 CRD, in the test with mouse Fzd3 CRD, with human Fzd1 CRD and in the test with human Fzd5 CRD was “no binding (tested: 1000 nM)” in each case. The binding result with mouse Fzd10 CRD, in the test with human Fzd2 CRD, with human Fzd6 CRD, with mouse Fzd6 CRD, with mouse Fzd2 CRD and with mouse Fzd4 CRD was “no binding (tested: 1000 nM)” in each case.

B2: 031S-B02 Fab (Fab, V domains shown)
VH: EVQLLESGGGLVQPGGSLRLSCAASGFTFSSYWMSWVRQAPGKGLEWVSAIGGSGANAYYADSVKGRFTISRDNSKNTLYLQMNSLRAEDTAVYYCVRDTNWAFDLWGQGTMVTVSS
VL: EIVMTQSPATLSVSPGERATLSCRASQSVSGSYLAWYQQKPGQAPRLLIYGASTRATGIPARFSGSGSGTEFTLTISSLQSEDFAVYYCQQYGSSPLTFGQGTKVEIK
notes: also called 31SB2
As for B2, the binding result with Fzd2 CRD was “no binding”.
